Tested on: hSWI/SNF complex (FLAG-tagged) (Homo sapiens (HeLa))
Test: competition
Settings: scale: fold preference over macroH2A nucleosome

**Q.** With 20/60 H2A nucleosome as the substance, how does the binding signal read?
**A.** 9
